{"source": "paper PMC10889554", "key": {"[1]": {"molecular_target": "human cathepsin K (human) (UniProt P43235)", "sequence (P43235 115-329)": "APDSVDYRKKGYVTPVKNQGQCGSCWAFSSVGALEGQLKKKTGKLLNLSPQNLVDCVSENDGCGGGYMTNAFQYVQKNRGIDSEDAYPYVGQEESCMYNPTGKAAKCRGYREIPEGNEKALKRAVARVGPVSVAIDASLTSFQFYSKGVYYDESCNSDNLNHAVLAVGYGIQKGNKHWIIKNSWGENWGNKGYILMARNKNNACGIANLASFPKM", "assay": "enzyme inhibition kinetics (fluorogenic peptide substrate activity assay); inhibitor preincubated with protease 15 min, 37 °C; IC50 from residual velocities, Ki by the Cheng-Prusoff equation; 50 mM sodium acetate pH 5.5, 0.1% polyethylene glycol 1500, 2.5 mM dithiothreitol (cathepsins L, K, V, B, F, C and papain; 50 mM NaCl for cathepsin C)"}, "[2]": {"molecular_target": "human cathepsin L (human)", "assay": "enzyme inhibition kinetics (fluorogenic peptide substrate activity assay); inhibitor preincubated with protease 15 min, 37 °C; IC50 from residual velocities, Ki by the Cheng-Prusoff equation; 50 mM sodium acetate pH 5.5, 0.1% polyethylene glycol 1500, 2.5 mM dithiothreitol (cathepsins L, K, V, B, F, C and papain; 50 mM NaCl for cathepsin C)"}, "[3]": {"molecular_target": "human cathepsin V (human) (UniProt O60911)", "sequence (O60911 114-334)": "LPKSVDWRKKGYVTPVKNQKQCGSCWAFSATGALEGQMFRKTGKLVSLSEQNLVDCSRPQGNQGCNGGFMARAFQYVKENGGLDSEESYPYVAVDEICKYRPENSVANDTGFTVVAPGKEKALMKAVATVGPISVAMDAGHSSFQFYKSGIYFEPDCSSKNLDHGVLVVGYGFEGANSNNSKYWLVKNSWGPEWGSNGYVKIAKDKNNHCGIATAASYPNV", "assay": "enzyme inhibition kinetics (fluorogenic peptide substrate activity assay); inhibitor preincubated with protease 15 min, 37 °C; IC50 from residual velocities, Ki by the Cheng-Prusoff equation; 50 mM sodium acetate pH 5.5, 0.1% polyethylene glycol 1500, 2.5 mM dithiothreitol (cathepsins L, K, V, B, F, C and papain; 50 mM NaCl for cathepsin C)"}, "[4]": {"molecular_target": "human cathepsin K (human) (UniProt P43235)"}, "[5]": {"molecular_target": "human cathepsin L (human)"}, "[6]": {"molecular_target": "human cathepsin V (human) (UniProt O60911)"}, "[7]": {"molecular_target": "human cathepsin K (human) (UniProt P43235)", "remark": "listed apart in the source"}}, "data": [{"substance": "IrThy-Cd, recombinant C-terminal Tg1 domain of IrThy (domain or fragment)", "values": [{"measurement": "Ki", "setting": "[1]", "result": 53.1, "unit": "nM"}, {"measurement": "Ki", "setting": "[2]", "result": 795, "unit": "nM"}, {"measurement": "Ki", "setting": "[3]", "result": 40.7, "unit": "nM"}]}, {"substance": "Ir-thyropin (IrThy), recombinant full-length mature protein (natural protein)", "values": [{"measurement": "% inhibition of cathepsin K activity by IrThy with chondroitin-4-sulfate at 10 µg/mL", "setting": "[4]", "result": 16, "unit": "%"}, {"measurement": "% inhibition of cathepsin K activity by IrThy with chondroitin-6-sulfate at 10 µg/mL", "setting": "[4]", "result": 23, "unit": "%"}, {"measurement": "% inhibition of cathepsin K activity by IrThy, no GAG, pH 5.5", "setting": "[4]", "result": 50, "unit": "%"}, {"measurement": "change of % inhibition of cathepsin L activity by IrThy with GAGs at 10 µg/mL", "setting": "[5]", "result": "< 15", "unit": "%"}, {"measurement": "% inhibition of cathepsin V activity by IrThy, no GAG, pH 5.5", "setting": "[6]", "result": 25, "unit": "%"}, {"measurement": "reduction of inhibition of cathepsin K activity by IrThy with 0.3 M NaCl, without heparin", "setting": "[7]", "result": 20, "unit": "%"}, {"measurement": "Ki", "setting": "[1]", "result": 56.9, "unit": "nM"}, {"measurement": "Ki", "setting": "[2]", "result": 201, "unit": "nM"}, {"measurement": "Ki", "setting": "[3]", "result": 34.7, "unit": "nM"}]}]}
